Source: patent US20160251419A1 (ROCKEFELLER UNIVERSITY, published 2016)

B1: monoclonal antibody 3f2.e10 (antibody, V domains shown)
VH: EVQLQESGGGLVQPKGSLKLSCAASGFSFNTYAMNWVRQAPGKGLEWVARIRSKSNNYATYYADSVKDRFTISRDDSESMLYLQMNNLKTEDTAMYYCVRLGAMDYWGQGTSVTVSS
VL: DIVMTQSQKFMSTSVGDRVSVTCKASQNVGTNVAWYQQKPGQSPKALIYSASYRYSGVPDRFTGSGSGTDFTLTISNVQSEDLAEYFCQQYNSYPLTFGAGTKLEL
B2: monoclonal antibody 5c9.a2 (antibody, V domains shown)
VH: EVQLQESGPVLVKPGASVKMSCKASGYTFTDYYMNWVKQSHGKSLEWIGVINPYNGGTSYNQKFKGKATLTVDKSSSTAYMELNSLTSEDSAVYYCASLRRRTDYFDYWGQGTTLTVSS
VL: DIVMTQSHKFMSTSVGDRVSITCKASQDVGTAVAWYQQKPGQSPKLLIYWASTRHTGVPDRFTGSGSGTDFTLTISNVQSEDLADYFCQQYSSYPLTFGAGTKLELK
B3: monoclonal antibody 4a8.e11 (antibody, V domains shown)
VH: EVQLQESGGGLVKPGGSLKLSCAASGFTFSDYGMHWVRQAPEKGLEWVAYISSGSSTVYCADTVKGRFTISRDNAKNTLFLQMTSLRSEDTAMYYCARRWGYFDYWGQGTTLTVSS
VL: DIKMTQSPSSMYASLGERVTFTCKASQDINSFLSWFQQKPGKSPKTLIYRANRLVDGVPSRFSGSGSGQDYSLTITSLEFEDMGIYYCLQYDEFPYTFGGGTKLEIK
notes: Mouse hybridoma mAb raised against NUCB1-capped hIAPP protofibrils; kappa light chain; also called mAb 4a8.e11
B4: monoclonal antibody 4b1.h9 (antibody, V domains shown)
VH: EVQLQESGPVLVKPGASVKMSCKASGYTFTDYYMNWVKQSHGKSLEWIGVINPYNGGTSYNQKFKGKATLTVDKSSSTAYMELNSLTSEDSAVYYCARRRGYAMDYWGQGTSVTVSS
VL: DIQMTQSPASLSASVGETVTITCRASENIYSYLAWYQQKQGKSPQLLVYNAKTLAEGVPSRFSGSGSGTQFSLKINSLQPEDFGSYYCQHHYGTPYTFGGGTNLEIK
B5: monoclonal antibody 5a8.b11 (antibody, V domains shown)
VH: EVQLQESGPELVKPGASVKIPCKASGYTFTDYNMDWVKQSHGKSLEWIGDINPNNGGTIYNQKFKGKATLTVDKSSSTAYMELRSLTSEDTAVYYCARKGERGFDYWGQGTTLTVSS
VL: ENVLTQSPAIMSASLGEKVTMSCRASSSVNYMYWYQQKSDASPKLWIYYTSNLAPGVPARFSGSGSGNSYSLTISSMEGEDAATYYCQQFTSSPSTFGAGTKLELK
B6: monoclonal antibody 7b6.b12 (antibody, V domains shown)
VH: EVQLQESGAELVKPGASVKISCKVSGYTFTDHTIHWMKQRPEQGLEWIGYIYPRDGSTKYNEKFKGKATLTADKSSSTAYMQLNSLTSEDSAVYFCARPYDYAWFAYWGQGTLVTVSA
VL: DILLTQSPAILSVSPGERVSFSCRASQSIGTSIHWYQQRTNGSPRLLIKYASESISGIPSRFSGSGSGTDFTLSINSVESEDIADYYCQQSNSWPFTFGSGTKLEIK
notes: Mouse hybridoma mAb raised against NUCB1-capped hIAPP protofibrils; kappa light chain; also called mAb 7b6.b12

Experiments:
[1] = target: Recombinant Aβ1-42 (rAβ1-42 peptides) in the Thioflavin T fibril formation assay (UniProt P05067 672-713); assay: cell-based or functional assay
Sequence of Recombinant Aβ1-42 (rAβ1-42 peptides) in the Thioflavin T fibril formation assay (P05067 672-713 limits assumed): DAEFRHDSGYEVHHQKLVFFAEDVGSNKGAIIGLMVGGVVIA

[2] = target: T1, amyloid-β Aβ(M1-42) peptide, structures along the aggregation pathway (Aβ1-42 protofibrils); assay: dot blot of aggregation time points (FIG. 18)
T1 construct: Expressed in E. coli
T1 sequence (peptide, as listed by the source): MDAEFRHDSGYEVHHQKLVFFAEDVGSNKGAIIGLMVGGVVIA
From the text: (A) Aβ₁₋₄₂ aggregation in a thioflavin T fluorescence assay guided sample collection (red circles) for a dot blot assay. (B) Samples from these time points were spotted on PVDF membranes and blotted with an anti-Aβ mAb to detect total Aβ₁₋₄₂, or with 4a8.e11, 3f2.e10, or 7b6.b12. (C) Bar graph showing quantitation of 4a8.e11 reactive material at indicated timepoints. (D) Bar graph showing quantitation of 3f2.e10 reactive material at indicated timepoints. (E) Bar graph showing quantitation of 7b6.b12 reactive material at indicated timepoints. The spots were quantified with ImageJ and normalized to total Aβ₁₋₄₂.
For kinetic experiments, aliquots of the purified Aβ42 were resuspended in 6M guanidinium hydrochloride and subjected to gel filtration on a Superdex Peptide column in 20 mM sodium phosphate buffer, pH 8, with 200 μM EDTA. The monomer-containing peak was then lyophilized and subjected to a second round of resuspension in 6M guanidinium hydrochloride and gel filtration on a Superdex Peptide column in 20 mM sodium phosphate buffer, pH 8, with 200 μM EDTA. […] Fluorescence measurements were made at regular intervals using FlexStation III (Molecular Devices) with excitation and emission at 440 and 480 nm, respectively. Each experimental point is the mean of the fluorescence signal of 6 wells containing aliquots of the same solution. […]

Row | Binder | T50 (time in minutes for 50% inhibition of fibril formation) [1] | binding result [2]
1 | B1 | 42.6 min | –
2 | B2 | 43.2 min | –
3 | B3 | 37.9 min | binds
4 | B4 | 60.7 min | –
5 | B5 | 40.3 min | –
6 | B6 | 40.2 min | binds
